Source: the Human Domainome abundance scans (Beltran et al. 2025)
± gives the uncertainty stated by the source.

B1: Cytoplasmic polyadenylation element-binding protein 2, residues 513 to 575; numbered along this chain, Q7Z5Q1 (parent)
chain: KRVEVKPYVLDDQMCDECQGARCGGKFAPFFCANVTCLQYYCEFCWANIHSRAGREFHKPLVK

Variants of: B1
Test: abundance fitness (aPCA) (normalised: wild type 0, dead -1); higher = more abundant; growth selection in yeast, the domain comes from the species named
Conditions: Homo sapiens

Abundance fitness of substitutions, site by site:
C32: K -0.617 ± 0.072; H -0.917 ± 0.15; F -1.1 ± 0.18; R -0.739 ± 0.079; I -0.47 ± 0.2; M -0.793 ± 0.074; S -0.664 ± 0.06; G -0.802 ± 0.08; L -0.882 ± 0.059; P -0.737 ± 0.089; T -0.779 ± 0.06; W -0.929 ± 0.13; Y -0.837 ± 0.11; N -0.724 ± 0.12; Q -0.742 ± 0.096; E -0.683 ± 0.056
F27: S -0.022 ± 0.047; V -0.035 ± 0.04; K 0.084 ± 0.059; Y -0.202 ± 0.095; P -0.01 ± 0.055; H -0.08 ± 0.11; E -0.09 ± 0.051; D -0.125 ± 0.082; M -0.013 ± 0.056; A 0.068 ± 0.042; N -0.099 ± 0.089; C 0.054 ± 0.057; Q -0.045 ± 0.05; W -0.178 ± 0.052; R -0.014 ± 0.047; L -0.015 ± 0.038; G -0.061 ± 0.042; I -0.218 ± 0.1; T -0.053 ± 0.053
G24: S -0.046 ± 0.044; Y -0.088 ± 0.071; V -0.083 ± 0.045; W -0.278 ± 0.034; Q 0.066 ± 0.054; T -0.325 ± 0.055; R -0.135 ± 0.04
C42: F -0.819 ± 0.11; Y -0.869 ± 0.094; V -0.849 ± 0.11; M -1.22 ± 0.24; G -0.58 ± 0.08; E -0.951 ± 0.4; L -1.03 ± 0.075; H -0.818 ± 0.068; T -1.11 ± 0.093; A -0.593 ± 0.11; D -0.558 ± 0.094; P -0.826 ± 0.08; Q -1.21 ± 0.22; R -1 ± 0.091; W -1.29 ± 0.44
N34: S -0.095 ± 0.04; C -0.354 ± 0.082; G -0.106 ± 0.05; R -0.207 ± 0.046; Q -0.207 ± 0.078; T -0.175 ± 0.048; D -0.07 ± 0.089; L -1.24 ± 0.093; H -0.438 ± 0.13; W -0.2 ± 0.072; F -0.363 ± 0.062; P -0.878 ± 0.11; M -0.44 ± 0.05; I -0.731 ± 0.11; A -0.028 ± 0.05; E 0.043 ± 0.044; Y -0.103 ± 0.074; V -0.29 ± 0.051
F31: E -0.291 ± 0.079; T -0.57 ± 0.075; P -0.588 ± 0.069; A -0.644 ± 0.081; W -0.04 ± 0.036; S -0.591 ± 0.053; G -0.685 ± 0.06; V -0.622 ± 0.084; R -0.324 ± 0.039; N -0.608 ± 0.098; M -0.461 ± 0.11; L -0.328 ± 0.047; D -0.962 ± 0.23; Y 0.033 ± 0.086; H -0.626 ± 0.16; K -0.332 ± 0.09; C -0.547 ± 0.082; Q -0.425 ± 0.072
L38: H 0.029 ± 0.098; I -0.115 ± 0.072; N 0.219 ± 0.071; Y 0.174 ± 0.077; M 0.123 ± 0.064; F -0.076 ± 0.072; C 0.064 ± 0.058; S 0.009 ± 0.052; K 0.202 ± 0.062; R 0.056 ± 0.041; W 0.022 ± 0.046; D -0.054 ± 0.052; T -0.072 ± 0.059; G -0.006 ± 0.039; V -0.094 ± 0.038; P -0.706 ± 0.087; E 0.077 ± 0.053; A 0.044 ± 0.043
T36: V -0.106 ± 0.053; L -0.121 ± 0.035; F -0.312 ± 0.11; S -0.011 ± 0.041; D 0.108 ± 0.077; H -0.061 ± 0.05; P -0.054 ± 0.048; A 0.007 ± 0.045; E 0.108 ± 0.037; M -0.095 ± 0.062; C -0.201 ± 0.12; W -0.328 ± 0.055; Y -0.153 ± 0.069; K -0.027 ± 0.045; N -0.024 ± 0.057; Q -0.058 ± 0.052; I -0.09 ± 0.062; R -0.151 ± 0.042; G 0.073 ± 0.036
A28: F -0.498 ± 0.11; V -0.287 ± 0.046; W -0.381 ± 0.083; M -0.445 ± 0.094; Y -0.985 ± 0.2; G -0.314 ± 0.034; P -0.208 ± 0.068; Q -0.366 ± 0.079; I -0.337 ± 0.065; K -0.094 ± 0.06; T -0.364 ± 0.061; N -0.459 ± 0.13; H -0.495 ± 0.097; C -0.674 ± 0.15; E -0.289 ± 0.053; S -0.321 ± 0.046; D -0.484 ± 0.077; L -0.497 ± 0.058; R -0.233 ± 0.039
C37: R -0.55 ± 0.057; W -0.952 ± 0.092; H -0.352 ± 0.29; F -0.85 ± 0.14; G -0.633 ± 0.056; Q -1.02 ± 0.13; A -0.82 ± 0.06; Y -0.806 ± 0.12; E -0.76 ± 0.083; S -0.54 ± 0.059; P -0.496 ± 0.064; T -1 ± 0.12; V -0.88 ± 0.068; I -0.568 ± 0.16; D -0.766 ± 0.1; L -0.931 ± 0.074
Q39: N -0.103 ± 0.081; L -0.175 ± 0.047; P -0.799 ± 0.091; Y -0.369 ± 0.1; D -0.631 ± 0.087; E -0.13 ± 0.06; S 0.016 ± 0.045; T -0.002 ± 0.053; K 0.201 ± 0.061; C -0.046 ± 0.064; V -0.001 ± 0.044; R 0.129 ± 0.045; H 0.089 ± 0.083; F -0.472 ± 0.089; I -0.573 ± 0.1; M 0.078 ± 0.074; G 0.024 ± 0.051; A 0.1 ± 0.04
Y40: W -0.059 ± 0.056; N 0.041 ± 0.084; P -0.654 ± 0.079; R -0.132 ± 0.048; T -0.315 ± 0.068; S -0.178 ± 0.051; C -0.411 ± 0.1; F -0.087 ± 0.089; H -0.092 ± 0.066; Q -0.184 ± 0.09; L -0.397 ± 0.049; I -0.512 ± 0.096; M -0.231 ± 0.055; G -0.474 ± 0.045; V -0.399 ± 0.047; E -0.702 ± 0.063; A -0.149 ± 0.056; K -0.186 ± 0.063
K26: L -0.138 ± 0.036; E -0.091 ± 0.053; S -0.079 ± 0.047; V -0.06 ± 0.038; T -0.073 ± 0.059; W -0.509 ± 0.064; R -0.027 ± 0.035; I -0.236 ± 0.091; H -0.126 ± 0.075; Q -0.132 ± 0.058; M -0.1 ± 0.056; A -0.016 ± 0.045; D -0.148 ± 0.088; G -0.082 ± 0.046; C -0.261 ± 0.054; Y -0.404 ± 0.084
A33: W -0.28 ± 0.042; N 0.002 ± 0.07; P -0.072 ± 0.05; M -0.18 ± 0.047; Q 0.099 ± 0.053; L -0.311 ± 0.042; H -0.177 ± 0.1; G -0.047 ± 0.035; R -0.124 ± 0.041; S 0.061 ± 0.036; K -0.147 ± 0.085; V -0.124 ± 0.044; D 0.12 ± 0.063; Y 0.009 ± 0.089; T 0.021 ± 0.062; E 0.077 ± 0.046; F -0.336 ± 0.078
P29: I -0.282 ± 0.073; C -0.147 ± 0.052; Y -0.122 ± 0.053; N -0.01 ± 0.062; G -0.03 ± 0.041; Q 0.074 ± 0.11; F -0.31 ± 0.074; W -0.293 ± 0.052; V -0.199 ± 0.064; D -0.096 ± 0.1; S 0.009 ± 0.038; R -0.052 ± 0.038; K -0.065 ± 0.047; E -0.108 ± 0.061; A 0.009 ± 0.056
G25: S -0.138 ± 0.045; T -0.088 ± 0.045; V -0.323 ± 0.044; P -0.321 ± 0.06; F -0.118 ± 0.059; C -0.349 ± 0.086; A -0.147 ± 0.049; M -0.127 ± 0.061; I -0.538 ± 0.087; W -0.075 ± 0.053; D -0.082 ± 0.059; R -0.081 ± 0.041; L -0.207 ± 0.039; Q -0.066 ± 0.082; K 0.016 ± 0.033; N -0.025 ± 0.085; E -0.195 ± 0.066; H -0.19 ± 0.061
V35: K 0.002 ± 0.07; H -0.037 ± 0.082; N 0.108 ± 0.078; R 0.077 ± 0.039; C -0.253 ± 0.076; G 0.058 ± 0.041; W -0.29 ± 0.053; D -0.091 ± 0.13; M -0.334 ± 0.09; T 0.033 ± 0.053; A 0.039 ± 0.048; Y -0.305 ± 0.14; E 0.063 ± 0.062; F -0.115 ± 0.06; P 0.116 ± 0.053; Q 0.021 ± 0.053; I -0.088 ± 0.064
F30: C -0.322 ± 0.061; T -0.188 ± 0.055; R -0.09 ± 0.04; P -0.621 ± 0.092; Q 0.016 ± 0.063; E -0.415 ± 0.11; I -0.161 ± 0.079; N -0.081 ± 0.13; A -0.261 ± 0.066; S -0.195 ± 0.049; L -0.036 ± 0.044; Y 0.006 ± 0.075; G -0.582 ± 0.063; K 0.037 ± 0.056; V -0.219 ± 0.049; D -0.318 ± 0.087
Y41: Q -0.433 ± 0.073; E -0.652 ± 0.081; A -0.676 ± 0.072; M -0.053 ± 0.056; G -0.878 ± 0.072; P -0.734 ± 0.082; R -0.804 ± 0.067; N -0.898 ± 0.3; L 0.039 ± 0.039; D -0.729 ± 0.1; V -0.531 ± 0.042; C -0.365 ± 0.09; S -0.532 ± 0.064; I -0.694 ± 0.14; H -0.704 ± 0.26; F -0.088 ± 0.11; K -0.625 ± 0.1; T -0.329 ± 0.088
E43: A -0.3 ± 0.067; V -0.235 ± 0.056; G -0.179 ± 0.047; I -0.539 ± 0.087; L -0.395 ± 0.044; H -0.079 ± 0.084; K -0.161 ± 0.064; N -0.05 ± 0.071; T -0.149 ± 0.06; Q -0.11 ± 0.057; M -0.309 ± 0.05; D -0.049 ± 0.083; S 0.018 ± 0.04; F -0.298 ± 0.052; C -0.25 ± 0.051; R -0.107 ± 0.036
